We go through three molecules from patent publication US20150210761A1 (SAMSUNG ELECTRONICS, published 2015).

The term Kd denotes the free concentration of one partner at which half of the binding sites on the other are occupied at equilibrium, for simple one-to-one binding. What is called IC50 is the midpoint of a concentration-inhibition curve. Read a high IC50 as weaker potency.

One assay deals with T1, hAng1 (human, UniProt Q15389 20-498, limits assumed).
T1 construct: Tested by the same SPR set-up as hAng2; the construct is not described; also called human Ang1
T1 sequence (looked up): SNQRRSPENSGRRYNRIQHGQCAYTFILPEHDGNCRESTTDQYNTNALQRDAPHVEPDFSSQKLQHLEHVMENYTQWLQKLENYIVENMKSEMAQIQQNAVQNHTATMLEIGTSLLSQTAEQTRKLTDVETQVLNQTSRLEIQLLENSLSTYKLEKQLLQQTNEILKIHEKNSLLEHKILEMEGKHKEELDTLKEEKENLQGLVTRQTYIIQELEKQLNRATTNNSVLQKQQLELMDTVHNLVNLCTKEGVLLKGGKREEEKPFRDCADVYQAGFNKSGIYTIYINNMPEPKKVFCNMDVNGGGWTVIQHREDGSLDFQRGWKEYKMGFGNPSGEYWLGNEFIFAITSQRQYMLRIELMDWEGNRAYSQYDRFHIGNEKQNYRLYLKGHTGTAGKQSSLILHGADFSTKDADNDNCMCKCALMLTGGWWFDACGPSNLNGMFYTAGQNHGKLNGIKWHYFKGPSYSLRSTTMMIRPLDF
Nature of the assay: SPR, BIAcore T100. For orientation: Surface plasmon resonance follows binding to a sensor surface in real time, without labels.

In assay [1] the target is T2, human Ang2 protein (R&D systems) (human, UniProt O15123 19-496).
T2 sequence: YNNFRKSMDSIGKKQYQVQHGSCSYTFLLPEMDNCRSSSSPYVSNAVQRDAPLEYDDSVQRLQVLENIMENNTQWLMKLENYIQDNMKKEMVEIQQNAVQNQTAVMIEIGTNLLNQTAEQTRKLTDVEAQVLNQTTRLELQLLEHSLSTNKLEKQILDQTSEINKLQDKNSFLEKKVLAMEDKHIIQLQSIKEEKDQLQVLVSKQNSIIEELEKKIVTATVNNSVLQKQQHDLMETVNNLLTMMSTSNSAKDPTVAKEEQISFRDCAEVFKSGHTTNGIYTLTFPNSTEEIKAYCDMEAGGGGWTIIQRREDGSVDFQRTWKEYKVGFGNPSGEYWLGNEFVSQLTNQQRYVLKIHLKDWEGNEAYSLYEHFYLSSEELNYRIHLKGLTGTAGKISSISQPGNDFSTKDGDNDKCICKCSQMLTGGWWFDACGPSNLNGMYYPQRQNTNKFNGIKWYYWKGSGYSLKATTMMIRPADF
Nature of the assay: cell-based or functional assay.

For assay [2], the target named is T3, recombinant hAng-2 (C-His, R&D Systems) (human, UniProt O15123 19-496).
T3 construct: Bought protein; Captured on an anti-His antibody chip for SPR; also called human Ang2; not shown: C-terminal His tag
T3 sequence: T2 sequence
Put plainly: SPR, BIAcore T100; hAng-2 C-His captured on anti-His chip, antibody flowed. The protocol: To more exactly measure the binding affinity of the anti-Ang2 antibodies to antigen Ang2, the binding affinity of the above antibodies to the antigen was measured by an surface plasmon resonance (SPR) method using BIAcore T100 (GE Healthcare). The SPR method uses refractive index change of light which passes a sensor chip according to the state of materials coated onto the sensor chip, and if an antigen or an antibody is flowed onto a chip coated with the antigen or antibody, it causes changes in refractive index due to their binding and Kd values are thus calculated from the measured values.
First, anti-His antibody was immobilized on a CM5 sensor chip (GE healthcare) up to 8,000 RU levels using a pH 5.0 acetate solution and an amine coupling kit (GE Healthcare). 6 μg/ml of a recombinant hAng-2 (C-His, R&D Systems) protein was flowed onto the chip to be captured at 100 to 200 RU levels.

A further assay deals with T4, FLAG-tagged hAng-2 (human, UniProt O15123 19-496).
T4 sequence: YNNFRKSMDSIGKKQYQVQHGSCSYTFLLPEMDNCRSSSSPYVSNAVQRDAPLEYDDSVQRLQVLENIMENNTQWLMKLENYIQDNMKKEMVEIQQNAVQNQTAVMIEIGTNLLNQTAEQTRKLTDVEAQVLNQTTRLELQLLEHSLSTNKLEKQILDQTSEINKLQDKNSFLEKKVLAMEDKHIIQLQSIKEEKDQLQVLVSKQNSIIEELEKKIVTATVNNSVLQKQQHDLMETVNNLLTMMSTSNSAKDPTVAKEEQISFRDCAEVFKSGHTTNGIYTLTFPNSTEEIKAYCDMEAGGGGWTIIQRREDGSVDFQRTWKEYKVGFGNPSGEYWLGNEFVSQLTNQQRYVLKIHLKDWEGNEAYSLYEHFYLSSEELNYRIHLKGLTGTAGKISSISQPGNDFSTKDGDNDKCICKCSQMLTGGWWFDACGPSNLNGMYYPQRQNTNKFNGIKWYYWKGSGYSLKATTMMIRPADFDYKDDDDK
Nature of the assay: Ang2:Tie2 competition ELISA; hTie2-Fc coated, 400 ng/ml FLAG-tagged hAng-2, anti-FLAG-HRP detection. The protocol: More specifically, MaxiSorp™ flat-bottom plate (Nunc) of 96-well was coated with hTie2-Fc (R&D Systems) which is a protein bound with 4 μg/ml of Fc of human IgG1. After coating, the plate was washed five times with 0.05% (v/v) Tween-20-containing PBS (phosphate buffer saline) and then blocked with 1% (v/v) BSA (bovine serum albumin; Sigma)-containing PBS at a room temperature for 2 hour.
For Ang2:Tie2 competition ELISA, each anti-Ang2 antibody obtained in Example 2 was placed at various concentrations of 400 nM-0.001 nM into each well coated with the hTie-2/Fc fusion protein along with 1% (v/v) BSA and 400 ng/ml of a FLAG-tagged hAng-2 and then, the plate was allowed to react at a room temperature for 2 hours and washed five times with PBST. After that, a HRP-conjugated anti-FLAG antibody (Sigma) diluted in 1% (v/v) BSA-containing PBS at a ratio of 1:5,000 (v/v) was added in an amount of […] to each well to react at a room temperature for 1 hour and then, the plate was washed five times with PBST. Lastly, 100 μl of TMB substrate (Cell Signaling) was added to each well of the plate to induce color development for 3 min. and then, the reaction was ceased by the addition of 100 μl of Stop solution (Cell Signaling) and OD450 values were measured on a plate reader (Molecular Devices).

B1: SAIT-ANG2-AB-m8D3 (antibody, V domains shown)
VH: EVQLQQSGPELVKPGDSVKMSCKASGYTFTDYYMKWVRQSHGKSLQWVGEINPKNGDTFYNQIFKGKATLTVDKSSSTAYMQLTSLTSEDSAVYYCTRENDYDVGFFDYWGQGTSVTVSS
VL: TIVMTQTPKFLLVSAGDRITITCKASQSVSNDVAWYQQKPGQSPKLLIYYASNRYPGVPDRFTGSGYGTDFTFTISTVQAEDLAVYFCQQDYTSPWTFGGGTELEIK
notes: also called hybridoma KCLRF-BP-00308
Turning to B1, the binding result in the assay with hAng1 is listed as “no binding (tested: 100 nM (highest antibody concentration))”. The “Tie2 phosphorylation inhibition (%), antibody at 50 nM, Tie2-overexpressing CHO cells with 20 nM human Ang2” value (“Tie2 phosphorylation inhibition (%)” for short) in assay [1] is 76.7%. In assay [2], the equilibrium dissociation constant (Kd) was determined as 4 nM. Further, in the assay with FLAG-tagged hAng-2, the IC50 came out at 0.99 nM.

B2: SAIT-ANG2-AB-m3E2 (antibody, V domains shown)
VH: EVQLQQSGAELVKPGASVKLSCTASGFNIKDPYIHWVKQRPEQGLEWIGRIDPANGNTKYDPKFQGKATITADTSSNTAYLQLSSLTSEDTAVYYCVRRWDGGGFDYWGQGTSVTVSS
VL: DIQMTQTTSSLSASLGDRVTISCRASQDISNYLNWYQQKPDGTVKLLIYYTSRLHSGVPSRFSGSGSGTDYSLTITNLEQEDIATYFCQQGNTLPWTFGGGTKLEIK
notes: also called hybridoma KCLRF-BP-00305
Regarding B2, in the assay with hAng1, the binding result was “no binding (tested: 100 nM (highest antibody concentration))”. Further, in assay [1], the “Tie2 phosphorylation inhibition (%)” value was 76.9%. In assay [2], the dissociation constant (Kd) worked out at 1.3 nM. Further, the IC50 with FLAG-tagged hAng-2 was determined as 0.55 nM.

B3: SAIT-ANG2-AB-m1A10 (antibody, V domains shown)
VH: QVQLQQSGAELMKPGASVKISCKATDYTFSSYWLEWLIQRPGHGLEWIGEILPGSGSTNYNEKFRGKATFTEDTSSNTAYMQLSSLTSEDSAVYYCARGNHNSYYYAMDYWGQGTSVTVSS
VL: DIVLTQSPASLAVSLGQRATISCRASESVDSYGNSFMHWYQQKPGQPPKLLIYRASNLDSGIPARFSGSGSRTDFTLTINPVEADDVATYYCQQSNEDPLTFGAGTKLELK
notes: also called hybridoma KCLRF-BP-00306
As for B3, the binding result with hAng1 was “no binding (tested: 100 nM (highest antibody concentration))”. In assay [1], the “Tie2 phosphorylation inhibition (%)” value worked out at 82%. The Kd in assay [2] is 4.2 nM. The same molecule displayed an IC50 with FLAG-tagged hAng-2 of 1.34 nM.
